Measurements from the supplement of paper PMC7877785.
± gives the uncertainty stated by the source.

Experiment: self-splicing fitness, log relative to wild type (ln ratio); higher = more splicing; Tetrahymena group I intron in knt gene, E. coli kanamycin selection, DiMSum; sequences stand for … in CUCUCU…GGAGGGAAAAGUUAUCAGGCAUGCACCUGGUAGCUAGUCUUUAAACCAAUAGAUUGCAUCGGUUUAAAAGGCAAGACCGUCAAAUUGCGGGAAAGGGGUCAACAGCCGUUCAGUACCAAGUCUCAGGGGAAACUUUGAGAUGGCCUUGCAAAGGGUAUGGUAAUAAGCUGACGGACAUGGUCCUAACCACGCAGCCAAGUCCUAAGUCAACAGAUCUUCUGUUGAUAUGGAUGCAGUUCACAGACUAAAUGUCGGUCGGGGAAGAUGUAUUCUUCUCAUAAGAUAUAGUCGGACCUCUCCUUAAUGGGAGCUAGCGGAUGAAGUGAUGCAACACUGGAGCCGCUGGGAACUAAUUUGUAUGCGAAAGUAUAUUGAUUAGUUUUGGAGUACUCGUGGUCG
In short: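 Colonies from six replicate transformations of E. coli BL21(DE3) were pooled and amplicon-sequenced on an Illumina HiSeq 2500. The library placed an intron with all eight P1ex-region nucleotides randomised inside the knt kanamycin-resistance gene on pET-22b(+), and cells grew overnight at 37°C or 30°C on LB agar with or without 25 μg/mL kanamycin (plus 100 μg/mL carbenicillin, 50 μM IPTG, 0.2% rhamnose). Fitness is the DiMSum error-weighted combination of wild-type-normalised replicate fold changes, kanamycin versus none.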

| Sequence | self-splicing fitness (ln) (30 °C) | self-splicing fitness (ln) (37 °C) |
| --- | --- | --- |
| UUGAAGCAAUAUUACGGACU | 0.0826 ± 0.16 | 0.0377 ± 0.12 |
| UUGAAGCAAUAUUACGGCGU | -0.215 ± 0.11 | 0.00688 ± 0.13 |
| UUGAAGCAAUAUUACGUCGU | -1.04 ± 0.074 | -0.397 ± 0.11 |
| UUGAAGCAAUAUUACGUGUA | -1.7 ± 0.053 | -1.25 ± 0.074 |
| UUGCAGCAAUAUUACGAUGU | -3.3 ± 0.16 | -3.09 ± 0.3 |
| UUGCAGCAAUAUUACGAUUU | -2.64 ± 0.14 | -1.22 ± 0.13 |
| UUGCAGCAAUAUUACGCAAU | -3.95 ± 0.42 | -1.86 ± 0.14 |
| UUGCAGCAAUAUUACGCCCG | -0.555 ± 0.18 | -1.07 ± 0.18 |
| UUGCAGCAAUAUUACGCGCC | -2.28 ± 0.44 | – |
| UUGCAGCAAUAUUACGCGGG | -4.61 ± 0.39 | -2.03 ± 0.21 |
| UUGCAGCAAUAUUACGCUGC | -3.93 ± 0.29 | -2.97 ± 0.38 |
| UUGCAGCAAUAUUACGCUUU | -2.64 ± 0.12 | -2.11 ± 0.15 |
| UUGCAGCAAUAUUACGGACC | -2.34 ± 0.27 | -2 ± 0.26 |
| UUGCAGCAAUAUUACGGCCU | -1.03 ± 0.095 | -0.864 ± 0.18 |
| UUGCAGCAAUAUUACGGUAU | -1.86 ± 0.11 | -1.63 ± 0.14 |
| UUGCAGCAAUAUUACGGUGU | -4.16 ± 0.21 | -2.72 ± 0.18 |
| UUGCAGCAAUAUUACGUAUC | -3.83 ± 0.16 | -2.4 ± 0.15 |
| UUGCAGCAAUAUUACGUAUU | -2.57 ± 0.14 | -1.43 ± 0.15 |
| UUGCAGCAAUAUUACGUCGC | -3.09 ± 0.28 | -2.16 ± 0.35 |
| UUGCAGCAAUAUUACGUCGG | -0.191 ± 0.089 | -0.117 ± 0.11 |

| Sequence | self-splicing fitness (ln) (30 °C) | self-splicing fitness (ln) (37 °C) |
| --- | --- | --- |
| UUGCAGCAAUAUUACGUGAG | -0.139 ± 0.078 | -0.302 ± 0.099 |
| UUGCAGCAAUAUUACGUGGU | -2.14 ± 0.16 | -2.76 ± 0.28 |
| UUGCAGCAAUAUUACGUUUC | -3.59 ± 0.27 | -3.17 ± 0.34 |
| UUGGAGCAAUAUUACGACAG | -1.57 ± 0.15 | -1.23 ± 0.18 |
| UUGGAGCAAUAUUACGACCA | -3.12 ± 0.48 | -1.34 ± 0.35 |
| UUGGAGCAAUAUUACGAGUA | – | -2.45 ± 0.48 |
| UUGGAGCAAUAUUACGAUAU | – | -2.49 ± 0.32 |
| UUGGAGCAAUAUUACGCAUU | -1.87 ± 0.33 | – |
| UUGGAGCAAUAUUACGCUCA | -1.16 ± 0.15 | -1.53 ± 0.24 |
| UUGGAGCAAUAUUACGGACC | – | -2.55 ± 0.33 |
| UUGGAGCAAUAUUACGGACG | -3.11 ± 0.32 | -1.04 ± 0.34 |
| UUGGAGCAAUAUUACGGCUA | -1.23 ± 0.26 | -1.21 ± 0.41 |
| UUGGAGCAAUAUUACGGCUU | -1.18 ± 0.46 | -2.15 ± 0.48 |
| UUGGAGCAAUAUUACGGGCC | – | -1.33 ± 0.42 |
| UUGGAGCAAUAUUACGGGGC | -3.04 ± 0.28 | -3.26 ± 0.47 |
| UUGGAGCAAUAUUACGGGGU | -4.02 ± 0.4 | -2.44 ± 0.33 |
| UUGGAGCAAUAUUACGGUUC | -2.38 ± 0.2 | -2.86 ± 0.3 |
| UUGGAGCAAUAUUACGUAAA | -2.9 ± 0.29 | -0.99 ± 0.25 |
| UUGGAGCAAUAUUACGUACA | – | 0.204 ± 0.28 |
| UUGGAGCAAUAUUACGUCAA | -2.19 ± 0.25 | -0.538 ± 0.19 |
